Source: publication doi:10.1101/2023.03.16.532763 (bioRxiv, 2023)

Target: purified full-length Polθ (UniProt O75417 1-2590)
Assay: co-IP

Sequence of purified full-length Polθ (O75417 whole entry): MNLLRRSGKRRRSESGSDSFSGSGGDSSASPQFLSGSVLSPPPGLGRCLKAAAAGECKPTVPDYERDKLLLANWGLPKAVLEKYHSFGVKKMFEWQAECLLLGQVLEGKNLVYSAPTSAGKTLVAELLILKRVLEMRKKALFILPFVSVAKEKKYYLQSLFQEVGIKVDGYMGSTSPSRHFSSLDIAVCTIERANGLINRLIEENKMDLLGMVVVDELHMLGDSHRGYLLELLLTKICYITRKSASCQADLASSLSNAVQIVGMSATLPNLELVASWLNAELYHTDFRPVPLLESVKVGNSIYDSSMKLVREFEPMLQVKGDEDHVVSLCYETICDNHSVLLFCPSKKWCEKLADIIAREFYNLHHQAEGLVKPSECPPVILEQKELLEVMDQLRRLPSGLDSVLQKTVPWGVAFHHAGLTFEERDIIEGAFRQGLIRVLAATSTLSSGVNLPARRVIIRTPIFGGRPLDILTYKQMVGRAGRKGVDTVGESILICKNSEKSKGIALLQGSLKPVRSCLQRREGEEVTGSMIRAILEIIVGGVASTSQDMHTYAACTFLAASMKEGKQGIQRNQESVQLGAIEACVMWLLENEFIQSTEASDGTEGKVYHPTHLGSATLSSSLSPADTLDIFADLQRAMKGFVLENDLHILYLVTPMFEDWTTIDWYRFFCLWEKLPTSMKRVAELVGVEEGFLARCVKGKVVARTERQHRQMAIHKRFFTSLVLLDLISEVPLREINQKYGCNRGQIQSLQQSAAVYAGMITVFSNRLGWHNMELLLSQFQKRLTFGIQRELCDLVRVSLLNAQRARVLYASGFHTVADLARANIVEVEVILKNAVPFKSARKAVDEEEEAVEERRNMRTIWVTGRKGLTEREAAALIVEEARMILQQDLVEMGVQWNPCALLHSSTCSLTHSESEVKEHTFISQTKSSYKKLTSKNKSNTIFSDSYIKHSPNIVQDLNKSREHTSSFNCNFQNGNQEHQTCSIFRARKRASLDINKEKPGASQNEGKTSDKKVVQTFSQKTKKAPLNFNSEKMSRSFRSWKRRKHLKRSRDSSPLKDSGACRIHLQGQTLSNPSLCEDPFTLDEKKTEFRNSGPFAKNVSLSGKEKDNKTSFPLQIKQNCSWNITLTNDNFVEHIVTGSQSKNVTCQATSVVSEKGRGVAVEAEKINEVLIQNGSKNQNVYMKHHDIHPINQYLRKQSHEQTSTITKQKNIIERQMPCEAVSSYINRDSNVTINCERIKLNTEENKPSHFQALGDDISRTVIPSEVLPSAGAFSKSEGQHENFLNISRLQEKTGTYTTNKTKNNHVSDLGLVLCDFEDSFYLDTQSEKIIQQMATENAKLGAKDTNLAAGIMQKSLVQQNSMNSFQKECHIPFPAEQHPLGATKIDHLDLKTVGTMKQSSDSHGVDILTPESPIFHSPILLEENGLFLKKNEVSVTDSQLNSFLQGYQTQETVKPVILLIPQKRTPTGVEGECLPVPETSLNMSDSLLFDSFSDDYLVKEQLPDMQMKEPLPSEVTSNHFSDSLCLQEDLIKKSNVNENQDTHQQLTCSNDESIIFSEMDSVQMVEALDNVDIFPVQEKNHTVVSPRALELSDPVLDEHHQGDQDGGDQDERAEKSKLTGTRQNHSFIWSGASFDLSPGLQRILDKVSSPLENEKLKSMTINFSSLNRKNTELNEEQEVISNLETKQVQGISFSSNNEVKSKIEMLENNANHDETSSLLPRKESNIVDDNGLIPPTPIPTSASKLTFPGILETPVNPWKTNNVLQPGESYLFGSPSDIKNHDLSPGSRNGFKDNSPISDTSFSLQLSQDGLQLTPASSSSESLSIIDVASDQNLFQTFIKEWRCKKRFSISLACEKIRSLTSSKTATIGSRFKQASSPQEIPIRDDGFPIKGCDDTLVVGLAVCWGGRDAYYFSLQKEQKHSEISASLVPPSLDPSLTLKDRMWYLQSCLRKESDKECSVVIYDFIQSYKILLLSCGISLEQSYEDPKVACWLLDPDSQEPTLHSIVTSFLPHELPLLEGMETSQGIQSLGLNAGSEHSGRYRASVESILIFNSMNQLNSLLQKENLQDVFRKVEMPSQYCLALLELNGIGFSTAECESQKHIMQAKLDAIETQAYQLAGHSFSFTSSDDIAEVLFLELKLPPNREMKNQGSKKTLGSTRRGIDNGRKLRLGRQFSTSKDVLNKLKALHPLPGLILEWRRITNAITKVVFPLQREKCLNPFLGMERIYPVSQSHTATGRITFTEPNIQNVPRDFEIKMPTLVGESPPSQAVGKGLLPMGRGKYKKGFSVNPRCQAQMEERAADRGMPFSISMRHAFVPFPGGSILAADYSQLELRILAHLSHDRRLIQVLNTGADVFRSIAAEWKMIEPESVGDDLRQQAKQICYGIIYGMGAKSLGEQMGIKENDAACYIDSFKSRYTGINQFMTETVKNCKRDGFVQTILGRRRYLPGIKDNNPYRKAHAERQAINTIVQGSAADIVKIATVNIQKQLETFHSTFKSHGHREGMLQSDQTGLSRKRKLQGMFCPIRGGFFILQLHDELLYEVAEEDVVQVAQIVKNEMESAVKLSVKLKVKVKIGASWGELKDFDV

binding result: binds
B1: purified recombinant human RHINO protein (natural protein, UniProt Q9BSD3 1-238, looked up)
chain: MPPRKKRRQPSQKAPLLFHQQPLEGPKHSCASTQLPITHTRQVPSKPIDHSTITSWVSPDFDTAAGSLFPAYQKHQNRARHSSRKPTTSKFPHLTFESPQSSSSETLGIPLIRECPSESEKDVSRRPLVPVLSPQSCGNMSVQALQSLPYVFIPPDIQTPESSSVKEELIPQDQKENSLLSCTLHTGTPNSPEPGPVLVKDTPEDKYGIKVTWRRRQHLLAYLRERGKLSRSQFLVKS
